In US20240066131A1 (Protagonist Therapeutics, Inc., priority 2020, published 2024):
Starred links: 1 amine or outer side, 2 acyl side, 3 side chain; linkers in the order of their positions; H or OH if unused. Non-standard residues stand in square brackets, D forms with d. Groups on a side chain read outwards from the residue. Primed or numbered codes have the meaning given here. *: point of attachment. Tet2 = (S)-2-amino-4-(1H-tetrazol-5-yl)butanoic acid, O=C([C@H](CCc1nn[nH]n1)N[*:1])[*:2]; ButanoicP = (R)-4-(pyrrolidin-2-yl)butanoic acid, O=C(CCC[C@@H]1CCCN1[*:1])[*:2]; Ala(1H-tetrazol-5-yl) = N[C@@H](Cc1nnn[nH]1)C(=O)O; Dip = N[C@H](C(=O)O)C(c1ccccc1)c1ccccc1; His(τ-Me) = Cn1cnc(C[C@H](N)C(=O)O)c1; Stearoyl = CCCCCCCCCCCCCCCCCC(=O)*; Palmitoyl = CCCCCCCCCCCCCCCC(=O)*; Myristoyl = CCCCCCCCCCCCCC(=O)*; β3hF = N[C@H](CC(=O)O)Cc1ccccc1; (n-hexyl)Gly = n-hexyl glycine; Tle = CC(C)(C)[C@H](N)C(=O)O; hLeu = CC(C)CC[C@H](N)C(=O)O; Isovaleryl = CC(C)CC(=O)*; hIle′ = not defined here; AEEA = NCCOCCOCC(=O)O; Ahx = NCCCCCC(=O)O; βAla = NCCC(=O)O

T1: human ferroportin (SLC40A1) fused in frame with GFP, stably expressed in HEK293 cells (human, UniProt Q9NP59 1-571)
T1 sequence (looked up): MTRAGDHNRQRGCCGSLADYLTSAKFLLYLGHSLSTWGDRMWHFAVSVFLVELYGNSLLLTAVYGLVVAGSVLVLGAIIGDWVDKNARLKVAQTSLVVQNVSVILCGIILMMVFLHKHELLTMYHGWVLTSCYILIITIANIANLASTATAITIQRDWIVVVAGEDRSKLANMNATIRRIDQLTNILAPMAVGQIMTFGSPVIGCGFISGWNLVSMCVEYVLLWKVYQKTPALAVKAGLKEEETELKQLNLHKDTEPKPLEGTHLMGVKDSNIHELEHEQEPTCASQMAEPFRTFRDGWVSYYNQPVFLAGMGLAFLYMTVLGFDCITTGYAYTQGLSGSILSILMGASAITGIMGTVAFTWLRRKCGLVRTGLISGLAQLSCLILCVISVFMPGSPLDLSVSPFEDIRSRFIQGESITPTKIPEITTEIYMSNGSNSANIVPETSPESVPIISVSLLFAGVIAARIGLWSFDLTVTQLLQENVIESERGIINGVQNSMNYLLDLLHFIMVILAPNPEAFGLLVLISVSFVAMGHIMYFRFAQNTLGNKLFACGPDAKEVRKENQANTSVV


Target: T1, human ferroportin (SLC40A1) fused in …
Experiment: cell-based or functional assay

| FPN EC50 | Binder |
| --- | --- |
| 228 nM | Isovaleryl-ETH[Dip]P[hIle′]IK([Ahx-Palmitoyl])[β3hF]-NH2 [Isovaleric Acid-E-T-H-[Dpa]-P-[hIle]-I-[Lys(Ahx_Palm)]-[bhPhe]-NH2] |
| 30.2 nM | Isovaleryl-[Ala(1H-tetrazol-5-yl)]T[His(τ-Me)][Dip]PAIK([Ahx-Palmitoyl])-NH2 (SMILES CCCCCCCCCCCCCCCC(=O)NCCCCCC(=O)NCCCC[C@H](NC(=O)[C@@H](NC(=O)[C@H](C)NC(=O)[C@@H]1CCCN1C(=O)[C@@H](NC(=O)[C@H](Cc1cn(C)cn1)NC(=O)[C@@H](NC(=O)[C@H](Cc1nnn[nH]1)NC(=O)CC(C)C)[C@@H](C)O)C(c1ccccc1)c1ccccc1)[C@@H](C)CC)C(N)=O) [Isovaleric Acid-[Tet1]-T-[His_1Me]-[Dpa]-P-A-I-[Lys(Ahx_Palm)]-NH2] |
| 34.2 nM | Isovaleryl-ETH[Dip]P[tBuAlanine]IK([Ahx-Palmitoyl])[β3hF]-NH2 [Isovaleric Acid-E-T-H-[Dpa]-P-[t-BuAlanine]-I-[Lys(Ahx_Palm)]-[bhPhe]-NH2] |
| 150 nM | Isovaleryl-ETH[Dip]P[hLeu]IK([Ahx-Palmitoyl])[β3hF]-NH2 (SMILES CCCCCCCCCCCCCCCC(=O)NCCCCCC(=O)NCCCC[C@H](NC(=O)[C@@H](NC(=O)[C@H](CCC(C)C)NC(=O)[C@@H]1CCCN1C(=O)[C@@H](NC(=O)[C@H](Cc1c[nH]cn1)NC(=O)[C@@H](NC(=O)[C@H](CCC(=O)O)NC(=O)CC(C)C)[C@@H](C)O)C(c1ccccc1)c1ccccc1)[C@@H](C)CC)C(=O)N[C@H](CC(N)=O)Cc1ccccc1) [Isovaleric Acid-E-T-H-[Dpa]-P-[hLeu]-I-[Lys(Ahx_Palm)]-[bhPhe]-NH2] |
| 214 nM | Isovaleryl-[Ala(1H-tetrazol-5-yl)]T[His(τ-Me)][Dip][ButanoicP]K([Ahx-Palmitoyl])-NH2 (SMILES CCCCCCCCCCCCCCCC(=O)NCCCCCC(=O)NCCCC[C@H](NC(=O)CCC[C@@H]1CCCN1C(=O)[C@@H](NC(=O)[C@H](Cc1cn(C)cn1)NC(=O)[C@@H](NC(=O)[C@H](Cc1nnn[nH]1)NC(=O)CC(C)C)[C@@H](C)O)C(c1ccccc1)c1ccccc1)C(N)=O) [Isovaleric Acid-[Tet1]-T-[His_1Me]-[Dpa]-[ButanoicP]-[Lys(Ahx_Palm)]-NH2] |
| 59.7 nM | Isovaleryl-ET[His(τ-Me)][Dip]PIIK([Ahx-Palmitoyl])[β3hF]-NH2 [Isovaleric Acid-E-T-[His_1Me]-[Dpa]-P-I-I-[Lys(Ahx_Palm)]-[bhPhe]-NH2] |
| 40.3 nM | Isovaleryl-ETH[Dip]P[Tle]IK([Ahx-Palmitoyl])[β3hF]-NH2 (SMILES CCCCCCCCCCCCCCCC(=O)NCCCCCC(=O)NCCCC[C@H](NC(=O)[C@@H](NC(=O)[C@@H](NC(=O)[C@@H]1CCCN1C(=O)[C@@H](NC(=O)[C@H](Cc1c[nH]cn1)NC(=O)[C@@H](NC(=O)[C@H](CCC(=O)O)NC(=O)CC(C)C)[C@@H](C)O)C(c1ccccc1)c1ccccc1)C(C)(C)C)[C@@H](C)CC)C(=O)N[C@H](CC(N)=O)Cc1ccccc1) [Isovaleric Acid-E-T-H-[Dpa]-P-[t-BuGly]-I-[Lys(Ahx_Palm)]-[bhPhe]-NH2] |
| 86.8 nM | Isovaleryl-[Ala(1H-tetrazol-5-yl)]TH[Dip]PIIK([Ahx-Palmitoyl])[β3hF]-NH2 (SMILES CCCCCCCCCCCCCCCC(=O)NCCCCCC(=O)NCCCC[C@H](NC(=O)[C@@H](NC(=O)[C@@H](NC(=O)[C@@H]1CCCN1C(=O)[C@@H](NC(=O)[C@H](Cc1c[nH]cn1)NC(=O)[C@@H](NC(=O)[C@H](Cc1nnn[nH]1)NC(=O)CC(C)C)[C@@H](C)O)C(c1ccccc1)c1ccccc1)[C@@H](C)CC)[C@@H](C)CC)C(=O)N[C@H](CC(N)=O)Cc1ccccc1) [Isovaleric Acid-[Tet1]-T-H-[Dpa]-P-I-I-[Lys(Ahx_Palm)]-[bhPhe]-NH2] |
| 73 nM | Isovaleryl-ET[His(τ-Me)][Dip]PAIK([Ahx-Palmitoyl])-NH2 [Isovaleric Acid-E-T-[His_1Me]-[Dpa]-P-A-I-[Lys(Ahx_Palm)]-NH2] |
| 44.1 nM | Isovaleryl-[Ala(1H-tetrazol-5-yl)]TH[Dip]PAIK([Ahx-Palmitoyl])-NH2 (SMILES CCCCCCCCCCCCCCCC(=O)NCCCCCC(=O)NCCCC[C@H](NC(=O)[C@@H](NC(=O)[C@H](C)NC(=O)[C@@H]1CCCN1C(=O)[C@@H](NC(=O)[C@H](Cc1c[nH]cn1)NC(=O)[C@@H](NC(=O)[C@H](Cc1nnn[nH]1)NC(=O)CC(C)C)[C@@H](C)O)C(c1ccccc1)c1ccccc1)[C@@H](C)CC)C(N)=O) [Isovaleric Acid-[Tet1]-T-H-[Dpa]-P-A-I-[Lys(Ahx_Palm)]-NH2] |
| 33.4 nM | Isovaleryl-[Ala(1H-tetrazol-5-yl)]T[His(τ-Me)][Dip]PIIK([Ahx-Palmitoyl])[β3hF]-NH2 [Isovaleric Acid-[Tet1]-T-[His_1Me]-[Dpa]-P-I-I-[Lys(Ahx_Palm)]-[bhPhe]-NH2] |
| 101 nM | Isovaleryl-[Tet2]T[His(τ-Me)][Dip]PIIK([Ahx-Palmitoyl])[β3hF]-NH2 (SMILES CCCCCCCCCCCCCCCC(=O)NCCCCCC(=O)NCCCC[C@H](NC(=O)[C@@H](NC(=O)[C@@H](NC(=O)[C@@H]1CCCN1C(=O)[C@@H](NC(=O)[C@H](Cc1cn(C)cn1)NC(=O)[C@@H](NC(=O)[C@H](CCc1nn[nH]n1)NC(=O)CC(C)C)[C@@H](C)O)C(c1ccccc1)c1ccccc1)[C@@H](C)CC)[C@@H](C)CC)C(=O)N[C@H](CC(N)=O)Cc1ccccc1) [Isovaleric Acid-[Tet2]-T-[His_1Me]-[Dpa]-P-I-I-[Lys(Ahx_Palm)]-[bhPhe]-NH2] |
| 376 nM | Isovaleryl-[Tet2]TH[Dip]PIIK([Ahx-Palmitoyl])[β3hF]-NH2 (SMILES CCCCCCCCCCCCCCCC(=O)NCCCCCC(=O)NCCCC[C@H](NC(=O)[C@@H](NC(=O)[C@@H](NC(=O)[C@@H]1CCCN1C(=O)[C@@H](NC(=O)[C@H](Cc1c[nH]cn1)NC(=O)[C@@H](NC(=O)[C@H](CCc1nn[nH]n1)NC(=O)CC(C)C)[C@@H](C)O)C(c1ccccc1)c1ccccc1)[C@@H](C)CC)[C@@H](C)CC)C(=O)N[C@H](CC(N)=O)Cc1ccccc1) [Isovaleric Acid-[Tet2]-T-H-[Dpa]-P-I-I-[Lys(Ahx_Palm)]-[bhPhe]-NH2] |

More lines, now with the values behind:

| Binder | FPN EC50 |
| --- | --- |
| Isovaleryl-ETH[Dip]PLIK([Ahx-Palmitoyl])[β3hF]-NH2 [Isovaleric Acid-E-T-H-[Dpa]-P-L-I-[Lys(Ahx_Palm)]-[bhPhe]-NH2] | 372 nM |
| Isovaleryl-ETH[Dip]PAIK([Ahx-C22])[β3hF]-NH2 [Isovaleric Acid-E-T-H-[Dpa]-P-A-I-[Lys(Ahx_C22)]-[bhPhe]-NH2] | 1330 nM |
| Isovaleryl-ETH[Dip]P[DiethylGly]IK([Ahx-Palmitoyl])[β3hF]-NH2 [Isovaleric Acid-E-T-H-[Dpa]-P-[DiethylGly]-I-[Lys(Ahx_Palm)]-[bhPhe]-NH2] | 69.7 nM |
| Isovaleryl-ETH[Dip]PAIK([AEEA-AEEA-Ahx-Palmitoyl])[β3hF]-NH2 (SMILES CCCCCCCCCCCCCCCC(=O)NCCCCCC(=O)NCCOCCOCC(=O)NCCOCCOCC(=O)NCCCC[C@H](NC(=O)[C@@H](NC(=O)[C@H](C)NC(=O)[C@@H]1CCCN1C(=O)[C@@H](NC(=O)[C@H](Cc1c[nH]cn1)NC(=O)[C@@H](NC(=O)[C@H](CCC(=O)O)NC(=O)CC(C)C)[C@@H](C)O)C(c1ccccc1)c1ccccc1)[C@@H](C)CC)C(=O)N[C@H](CC(N)=O)Cc1ccccc1) [Isovaleric Acid-E-T-H-[Dpa]-P-A-I-[Lys(1PEG2_1PEG2_Ahx_Palm)]-[bhPhe]-NH2] | 63.5 nM |
| Isovaleryl-ETH[Dip]PAIK([βAla-Palmitoyl])[β3hF]-NH2 [Isovaleric Acid-E-T-H-[Dpa]-P-A-I-[Lys(bAla_Palm)]-[bhPhe]-NH2] | 62.9 nM |
| Isovaleryl-ETH[Dip]PVIK([Ahx-Palmitoyl])[β3hF]-NH2 (SMILES CCCCCCCCCCCCCCCC(=O)NCCCCCC(=O)NCCCC[C@H](NC(=O)[C@@H](NC(=O)[C@@H](NC(=O)[C@@H]1CCCN1C(=O)[C@@H](NC(=O)[C@H](Cc1c[nH]cn1)NC(=O)[C@@H](NC(=O)[C@H](CCC(=O)O)NC(=O)CC(C)C)[C@@H](C)O)C(c1ccccc1)c1ccccc1)C(C)C)[C@@H](C)CC)C(=O)N[C@H](CC(N)=O)Cc1ccccc1) [Isovaleric Acid-E-T-H-[Dpa]-P-V-I-[Lys(Ahx_Palm)]-[bhPhe]-NH2] | 199 nM |
| Isovaleryl-ETH[Dip]PAK([Ahx-Palmitoyl])-NH2 (SMILES CCCCCCCCCCCCCCCC(=O)NCCCCCC(=O)NCCCC[C@H](NC(=O)[C@H](C)NC(=O)[C@@H]1CCCN1C(=O)[C@@H](NC(=O)[C@H](Cc1c[nH]cn1)NC(=O)[C@@H](NC(=O)[C@H](CCC(=O)O)NC(=O)CC(C)C)[C@@H](C)O)C(c1ccccc1)c1ccccc1)C(N)=O) [Isovaleric Acid-E-T-H-[Dpa]-P-A-[Lys(Ahx_Palm)]-NH2] | 193 nM |
| Isovaleryl-ETH[Dip]PAIK([Ahx-C10])[β3hF]-NH2 [Isovaleric Acid-E-T-H-[Dpa]-P-A-I-[Lys(Ahx_C10)]-[bhPhe]-NH2] | 123 nM |
| Isovaleryl-ETH[Dip]PAIK([Ahx-Myristoyl])[β3hF]-NH2 [Isovaleric Acid-E-T-H-[Dpa]-P-A-I-[Lys(Ahx_C14)]-[bhPhe]-NH2] | 92.4 nM |
| Isovaleryl-ETH[Dip]PAIK([Ahx-Stearoyl])[β3hF]-NH2 [Isovaleric Acid-E-T-H-[Dpa]-P-A-I-[Lys(Ahx_C18)]-[bhPhe]-NH2] | 82.2 nM |
| Isovaleryl-ETH[Dip]PIIK([Ahx-Palmitoyl])[β3hF]-NH2 [Isovaleric Acid-E-T-H-[Dpa]-P-I-I-[Lys(Ahx_Palm)]-[bhPhe]-NH2] | 232 nM |
| Isovaleryl-ETH[Dip]PAIK([AEEA-AEEA-Palmitoyl])[β3hF]-NH2 [Isovaleric Acid-E-T-H-[Dpa]-P-A-I-[Lys(1PEG2_1PEG2_Palm)]-[bhPhe]-NH2] | 73.7 nM |
| Isovaleryl-ETH[Dip]P[(n-hexyl)Gly]IK([Ahx-Palmitoyl])[β3hF]-NH2 [Isovaleric Acid-E-T-H-[Dpa]-P-[(n-hexyl)Gly]-I-[Lys(Ahx_Palm)]-[bhPhe]-NH2] | 427 nM |
